These results are taken from patent US20230303685A1 (ELECTRA THERAPEUTICS, published 2023).

One assay concerns the target T1, human SIRPγ-His monomer (human).
T1 construct: 'SIRP-His monomer protein' of the Octet assay; also called SIRP-His; not shown: His tag
As to the kind of experiment: BLI (Octet); antibody on anti-mouse IgG capture tip, SIRP-His monomer at 100, 33.3, 11.1 nM, 1:1 fit, mean KD. On the procedure: (§1) Select SIRP antibodies were tested for their affinities to human SIRPα, SIRPβ1, and SIRPγ using a biolayer interferometry (BLI) Octet system (Pall ForteBio). Each SIRP antibody with rat or mouse Fc was immobilized on a biosensor tip by an anti-mouse IgG capture (AMC). Antibodies with human Fc were digested with gingipain K enzyme to yield monomeric F(ab′), biotinylated, then coated onto streptavidin biosensors. […] The biosensors were then exposed to wash buffer to measure off-rate kinetics. The resulting kinetic data were analyzed and fitted using a 1:1 binding model with kₒₙ and kdis fitted separately at each SIRP-His protein concentration. KD affinities were calculated as kdis to kₒₙ ratio at each concentration of SIRP-His and averaged.

For assay [1], the target named is T2, Human SIRPγ.
T2 construct: also called human SIRPγ extracellular domain, plate-coated
T2 chain: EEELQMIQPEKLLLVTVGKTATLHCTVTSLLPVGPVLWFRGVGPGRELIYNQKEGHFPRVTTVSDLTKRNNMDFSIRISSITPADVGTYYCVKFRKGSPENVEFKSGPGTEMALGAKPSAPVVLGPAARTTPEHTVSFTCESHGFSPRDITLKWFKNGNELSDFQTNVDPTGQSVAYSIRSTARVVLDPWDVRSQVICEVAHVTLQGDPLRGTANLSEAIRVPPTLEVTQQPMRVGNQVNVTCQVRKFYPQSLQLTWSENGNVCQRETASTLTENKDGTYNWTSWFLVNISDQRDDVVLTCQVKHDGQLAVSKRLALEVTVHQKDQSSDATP
As to the kind of experiment: ELISA, extracellular domain coated at 2 µg/mL, purified antibody titrated, anti-rat or anti-mouse IgG, chemiluminescence. How it is done:
(§2) Select SIRP antibodies were purified by Protein G from hybridoma supernatants and analyzed in a titration via ELISA. Briefly, 2 μg/mL of extracellular domain of each of the SIRPs was coated onto high protein-binding plates and blocked. Purified antibodies were added in a titration to the coated plates. The antibodies were detected by an anti-rat IgG or an anti-mouse IgG antibody and a chemiluminescent substrate.

The target in the next assay is T3, Cynomolgus Monkey SIRPγ (Macaca fascicularis).
T3 construct: extracellular domain; also called cyno SIRPγ extracellular domain, plate-coated
The assay is described as above. How it is done: as §2

In assay [2] the target is T4, Human SIRPγ conjugated to an Fc region (human).
T4 construct: also called SIRPγ-Fc; SIRP-Fc; not shown: Fc region
Put plainly: BLI blocking; 200 nM antibody pre-incubated with 20 nM SIRPγ-Fc, binding to immobilised CD47-His (competitor), % of response of SIRPγ-Fc alone.

A further assay deals with T5, Human SIRPγ CHO.
T5 construct: also called human SIRPγ on CHO cells
T5 chain: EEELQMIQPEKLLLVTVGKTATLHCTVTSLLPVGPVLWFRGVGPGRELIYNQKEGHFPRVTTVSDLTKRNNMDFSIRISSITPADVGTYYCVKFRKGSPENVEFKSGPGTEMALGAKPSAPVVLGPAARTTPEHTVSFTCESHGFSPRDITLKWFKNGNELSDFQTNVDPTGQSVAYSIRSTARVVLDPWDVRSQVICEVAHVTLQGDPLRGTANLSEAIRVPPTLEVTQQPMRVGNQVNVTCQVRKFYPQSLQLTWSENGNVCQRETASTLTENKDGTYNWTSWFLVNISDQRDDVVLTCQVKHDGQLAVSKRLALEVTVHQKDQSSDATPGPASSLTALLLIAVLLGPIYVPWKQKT
Put plainly: flow cytometry, stably transfected CHO cells, antibody titrated, labelled anti-rat or anti-mouse IgG, MFI. How it is done:
Selected antibodies were tested for binding to stably transfected human SIRPα, SIRPβ1 (co-transfected with DAP12), or SIRPγ Chinese hamster ovary (CHO) cells via flow cytometry. A titration of SIRP antibodies was added to the cells and detected using a fluorescently labelled secondary antibody. Graph depicts the median fluorescence intensity (MFI) at each concentration.

Assay [3] addresses T6, human SIRPα V1-His monomer (human, UniProt P78324 31-373, limits assumed).
T6 construct: 'SIRP-His monomer protein' of the Octet assay; also called SIRP-His; not shown: His tag
Put plainly: BLI (Octet); antibody on anti-mouse IgG capture tip, SIRP-His monomer at 100, 33.3, 11.1 nM, 1:1 fit, mean KD. How it is done:
as §1

In a further assay the target is T7, human SIRPβ1-His monomer (human, UniProt O00241 30-371).
T7 construct: 'SIRP-His monomer protein' of the Octet assay; also called SIRP-His; not shown: His tag
Described as above. On the procedure: as §1

The target of another assay is T8, Human SIRPβ1.
T8 construct: also called human SIRPβ1 extracellular domain, plate-coated
T8 chain: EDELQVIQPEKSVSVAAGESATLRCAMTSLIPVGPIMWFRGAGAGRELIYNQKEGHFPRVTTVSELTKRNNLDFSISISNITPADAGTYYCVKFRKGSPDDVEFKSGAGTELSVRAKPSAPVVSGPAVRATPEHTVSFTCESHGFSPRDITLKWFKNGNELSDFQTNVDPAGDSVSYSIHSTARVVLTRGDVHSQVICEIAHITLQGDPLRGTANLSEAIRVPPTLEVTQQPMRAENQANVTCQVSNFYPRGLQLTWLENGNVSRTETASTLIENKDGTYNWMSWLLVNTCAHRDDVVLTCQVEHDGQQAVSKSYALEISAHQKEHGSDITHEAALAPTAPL
Put plainly: ELISA, extracellular domain coated at 2 µg/mL, purified antibody titrated, anti-rat or anti-mouse IgG, chemiluminescence. How it is done: as §2

For assay [4], the target named is T9, human SIRPα V1 extracellular domain, monomeric (human, UniProt P78324 31-373).
T9 construct: also called hSIRPα V1
The description is as above. How it is done:
as §2

For assay [5], the target named is T10, cynomolgus monkey SIRPα extracellular domain, monomeric (cynomolgus monkey, UniProt A0A2K5VYQ9 31-372).
T10 construct: extracellular domain; also called Cyno SIRPα
Put plainly: SPR (Biacore); antibody captured by anti-IgG on chip, monomeric SIRPα extracellular domain as analyte, 1:1 model. How it is done:
(§3) Selected antibodies were tested for their affinities to two hSIRPα variants (V1 and V2), and to cynomolgus monkey (herein referred to as “cyno”) SIRPα. The affinities of these SIRP antibodies were determined using surface plasmon resonance. The SIRP antibodies were flowed onto a chip and captured by an anti-mouse IgG or an anti-human IgG covalently coupled to the surface of the chip. A three-point titration of the extracellular binding domain of hSIRPα was performed per the manufacturer's recommended protocols.

For assay [6], the target named is T9, human SIRPα V1 extracellular domain, …. The description is as above. How it is done:
as §3

The target of assay [7] is T2, Human SIRPγ. Put plainly: ELISA, extracellular domain coated at 1 µg/mL, purified antibody titrated, anti-human IgG, chemiluminescence. How it is done:
Select SIRP antibodies were purified by Protein G from hybridoma supernatants and analyzed in a titration via ELISA. Briefly, 1 μg/mL of extracellular domain SIRPα was coated onto high protein-binding plates and blocked. Purified antibodies were added in a titration to the coated plates. The antibodies were detected by an anti-rat IgG antibody and a chemiluminescent substrate.
FIGS. 3A-3C show binding curves of SIRP antibodies and two isotype controls with human Fc to human SIRPα V1, human SIRPβ1, human SIRPγ and cynomolgus monkey SIRPα by ELISA. […] Isotype control 1 was an unrelated human IgG1 antibody with irrelevant CDRs. Isotype control 2 was the same as isotype control 1 but contained the same amino acid substitutions in the Fc region as some of the selected SIRP antibodies for increased FcγR binding (referring to Table 11). DNA was transiently transfected into CHO cells for 7 days. Antibodies were purified by Protein A from cell supernatants and analyzed in a titration via ELISA as previously described in FIGS. 2A-2B using an anti-human IgG antibody as the detection antibody.

In assay [8] the target is T11, human SIRPα V2 extracellular domain, monomeric (human, UniProt P78324 31-370).
T11 construct: also called hSIRPα V2
Put plainly: SPR (Biacore); antibody captured by anti-IgG on chip, monomeric SIRPα extracellular domain as analyte, 1:1 model. On the procedure: as §3

B1: Antibody 14 (antibody, V domains shown)
VH: QVQLVESGGGVVQPGRSLRLSCVASGFIFSNYGMHWVRQAPGKGLEWVAVISYDGRNEDHVDSVKGRFTISRDNSKNTLYLQMNSLRAEDTAVYYCAKGSGSYYFDYWGQGTLVTVSS
VL: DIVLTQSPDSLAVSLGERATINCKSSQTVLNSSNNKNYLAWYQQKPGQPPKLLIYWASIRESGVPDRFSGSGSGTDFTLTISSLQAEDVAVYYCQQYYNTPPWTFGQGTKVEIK
notes: Human variable region, rat IgG2b Fc; from hybridoma
B1 gave a Kd in the assay with human SIRPγ-His monomer of 38.7 nM. Besides, the results for the concentration for a half-maximal effect (EC50 (read off the curve)) in the assay with Human SIRPγ [1] and in the assay with Cynomolgus Monkey SIRPγ were around 0.05 µg/mL and around 0.09 µg/mL, respectively. In assay [2], the “SIRPγ-CD47 Response (%)” value was 14.4%. In addition, the binding result with Human SIRPγ CHO is given as “binds”.

B2: Antibody 3 (antibody, V domains shown)
VH: QVQLQESGPGLVKPSGTLSLTCAVSGGSISSSNWWSWVRQPPGKGLEWIGEIYHSGNTNYNPSLKSRVTISVDKSKNQFSLKLSSVTAADTAVYYCAREGIEGYYFYYGMDVWGQGTTVTVSS
VL: DIQLTQSPSFLSASVGDRVTITCRASQGISGYLDWYQQKPGKAPKLLIYAASTLQRGVPSRFSGSGSGTDFNLTISSLQPEDFATYYCQQFTSDLITFGQGTRLEIK
notes: as for B1
As for B2, the Kd was found to be 3.1 nM in assay [3]; 103 nM with human SIRPγ-His monomer; 7500 nM with human SIRPβ1-His monomer; 513 nM in assay [5]; 4.57 nM in assay [6]. The “EC50 (read off the curve)” value with Human SIRPβ1 is around 0.06 µg/mL; in the assay with Human SIRPγ [1], around 0.06 µg/mL; with Cynomolgus Monkey SIRPγ, around 0.1 µg/mL; in assay [4], around 0.1 µg/mL; with Human SIRPγ CHO it was around 0.2 µg/mL. Besides, the “SIRPγ-CD47 Response (%)” value in [2] is -7.23%.

B3: Antibody 24 (antibody, V domains shown)
VH: QVQLQESGPGLVKPSGTLSLTCAVSGGSISSSNWWSWVRQPPGKGLEWIGEIYHSGNTNYNPSLKSRVTISVDKSKNQFSLKLSSVTAADTAVYYCAREGIEGYYFYYGMDVWGQGTTVTVSS
VL: DIQLTQSPSFLSASVGDRVTITCRASQGISGYLDWYQQKPGKAPKLLIYAASTLQRGVPSRFSGSGSGTDFNLTISSLQPEDFATYYCQQFTSDLITFGQGTRLEIK
notes: Variable regions of Antibody 3
As to B3, the “EC50 (read off the curve)” value with Human SIRPγ [7] was around 0.02 µg/mL. The Kd in [5] amounted to 15 nM; in [8], 22.6 nM; in [6], 2.89 nM. The “SIRPγ-CD47 Response (%)” value in [2] was -37.9%.

B4: Antibody 23 (antibody, V domains shown)
VH: QVQLQESGPGLVKPSGTLSLTCAVSGGSISSSNWWSWVRQPPGKGLEWIGEIYHSGSTNYNPSLKSRVTISVDKSKNQFSLKLSSVTAADTAVYYCARRGIWFGVGPWGQGTLVTVSS
VL: DIVMTQSPLSLPVTPGEPASISCRSSQSLLHGNGFNYLDWYLQKPGQSPQLLIYLGSNRASGVPDRFTGSGSGTDFTLKISRVEAEDVGVYYCMQGLQTPRTFGQGTKVEIK
notes: Variable regions of Antibody 1
In the case of B4, in the assay with Human SIRPγ [7], the “EC50 (read off the curve)” value is around 0.04 µg/mL. The figures for the Kd in assay [5], in [8] and in assay [6] were 384 nM, 374 nM and 323 nM, respectively.

B5: Antibody 9 (antibody, V domains shown)
VH: QVQLQQWGAGLLKPSETLSLTCAVYGGSFSTYYWNWIRQPPGKGLEWIGEINHSGSTNYNPSLKSRVIISVDTSKNQFSLKLSSVTAADTAVYYCASSHYGSGSFPDSYGMDVWGQGTTVTVSA
VL: SYELTQSPSVSVSPGQTASITCSGDKLGDRYAWWYQQKPGQSPVLVIYQDDKRPSGIPERFSGSNSGNTATLTISGTQAMDEADYYCQAWDSSTAVFGGGTKLTVL
notes: as for B1
In assay [3], B5 came in with a Kd of 1.24 nM. For the same molecule, the binding result in the assay with Human SIRPγ [1] and with Human SIRPγ CHO was “binds” in each case.

B6: Antibody 10 (antibody, V domains shown)
VH: EVQLLESGGGLVQPGGSLRLSCAASGFTFSSYAMSWVRQAPGKGLEWVSAISGSGGDTYYADSVKGRFTISRDNSKSTLYLQMNSLRAEDTAVYYCAKDGGSYYPPFDYWGQGTLVTVSS
VL: SYELTQPPSVSVSPGQTASITCSGDKLGDRYACWYQQKPGQSPVLVIYQDTKRPSGIPERFSGSNSGNTATLTISGTQAMDEADYYCQACDSSTAVFGGGTKLTVL
notes: as for B1
For the molecule B6, the Kd in [3] worked out at 57.6 nM; with human SIRPγ-His monomer, 1.37 nM. The binding result in the assay with Human SIRPγ [1] and with Human SIRPγ CHO was “binds” throughout. In addition, the “SIRPγ-CD47 Response (%)” value in assay [2] was -4.29%.
